The target in the assay is His-SP (RBD) (SARS-CoV-2, UniProt P0DTC2 319-541). Put plainly: SPR. For orientation: SPR reads the build-up and loss of mass on a sensor chip optically.

B1: His-CD147 (receptor)
chain: AAGTVFTTVEDLGSKILLTCSLNDSATEVTGHRWLKGGVVLKEDALPGQKTEFKVDSDDQWGEYSCVFLPEPMGTANIQLHGPPRVKAVKSSEHINEGETAMLVCKSESVPPVTDWAWYKITDSEDKALMNGSESRFFVSSSQGRSELHIENLNMEADPGQYRCNGTSSKGSDQAIITLRVRSHLAAL
B1: the Kd (in general, the constant that tells how readily two partners part at equilibrium) was found to be 185 nM.

The record behind these values is paper doi:10.1101/2020.03.14.988345 (bioRxiv, 2020).
